In the nanobody polyreactivity screen of Harvey et al. (2022):

Test: yeast display, Sf9 membrane polyspecificity reagent, FACS + sequencing; frameworks hold sequencing errors
In short: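 After 36–48 hours of galactose induction, yeast (Saccharomyces cerevisiae BJ5465) displaying a synthetic nanobody library were stained at 4 °C for 1 hour with 10% biotinylated, detergent-solubilized Sf9 membrane reagent. Streptavidin microbeads enriched the stained cells before FACS sorting into low and high (top ~1%) gates on anti-HA and streptavidin fluorescence. Each clone's polyreactivity label reflects its gate of origin.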

Sequence: QVQLVESGVGLVQAGGSLRLSCAASGSIFYRYAMGWYRQAPGKEREFVARITSSGGSTNYADSVKGRFTISRDNAKNTVYLQMNSLKPEDTAVYYCAKRGWSSYGRYDSWGQGTQVTVSS
- polyreactivity (PSR sort gate): high polyreactivity

Sequence: QVQLVESGVGLVQAGGSLRLSCAASGSISQGNAMGWYRQAPGKERELVAANRWTSGRTYYADSVKGRFTISRDIAKNTVYLQMNSLKPEDTAEYYCAAYYVYYTPTLFDRVYWGQGSQVTVSS
- polyreactivity (PSR sort gate): low polyreactivity

Sequence: QVQLVESGVGLVQAGGSLRLSCAASGSTFRGYAMGWYRQAPGKERELVAAISGIGGSTYYADSVKGRFTISRDNAKNTVYLQMNSLKPEDTAVYYCNAVSGDSGDYWGQGTQVTVSS
- polyreactivity (PSR sort gate): low polyreactivity

Sequence: QVQLVESGVGLVQAGGSLRLSCAASGSTFTANAMGLYRQAPGKERELVAAISSTGGSTYYADSVKGRFTISRDNEKNTVYLQMNSLKPEDTAVYYCNKDGPYQVITYDYWGQGTKVTVSS
- polyreactivity (PSR sort gate): high polyreactivity

Sequence: QVQLVESGVGLVQAGGSLRLSCAASGSTFVYMGWYRQAPGKEREFVAAITWSGGSTYYADSVKGRFTISRDNAKNTVYLQMNSLKPEDTAVYYCNAVSVFPGWARYYYWGQGTQVTVSS
- polyreactivity (PSR sort gate): low polyreactivity

Sequence: QVQLVESGVGLVQAGGSLRLSCAASGSTFYRYAMGWYRQAPGKERELVAAIRGSGGRTYYADSVKGRFTISRDNAKNTVYLQMNSLKPEDTAVYYCAAYRGVSQKGDYWGQGTQVTVSS
- polyreactivity (PSR sort gate): high polyreactivity

Sequence: QVQLVESGVGLVQAGGSLRLSCAASGSTFYVYTMGWYRQAPGKERELVAAISLSGDNTYYADSVKGRFTISRDNAKNTVYLQMNSLKPEDTAVYYCAADVFYSPSAQKYDSWGQGTQVTVSS
- polyreactivity (PSR sort gate): low polyreactivity

Sequence: QVQLVESGVGLVQAGGSLRLSCAASGYIFFGNAMGWYRQAPGKERELVAAIRWRGTSTYYADSVKGRFTISRDNAKNTVYLQMNSLKPEDTAVYYCAADVVRSNFYGTFLYDYDYWGQGTQVTVSS
- polyreactivity (PSR sort gate): low polyreactivity

Sequence: QVQLVESGVGLVQAGGSLRLSCAAYGSIFDGYAMGWYRPAPGKEREFVATITVSGGRSYYADSVKGSFTISRDNANNTVYLEMNSLKPEDTAVYYGNVDVFYYPHRYDYWGQGTQVTVSS
- polyreactivity (PSR sort gate): high polyreactivity

Sequence: QVQLVESGVGLVQAGGSLRLSCAHSGRIFFKNTMGWYRQAPGKERELVAAITSSGSSTYYADSVKGRFTISRDNAMNTVYLQMNSLKPEDTAVYYCNADYGFSFYWYDFWGHGTQVTVSS
- polyreactivity (PSR sort gate): low polyreactivity

Sequence: QVQLVESGVGLVQAGGSLRLSCASSGRILTYYAMGWYRQAPGKERELVASISSNGGTYYADSVKGRFTISRDNAKNTVYLQMNSLKPEDTAVYYCNAKRVARYQYGASYNYWGQGTQVTVSS
- polyreactivity (PSR sort gate): high polyreactivity

Sequence: QVQLVESGVGLVQAGGSLRLSCSASGIIFDDYAMGWYRQAPGKERELVAAISRRGGSTYYADSVKGRFTISRDNAKNTVYLQMNSLKPEDTAVYYCAATTRTYSLYNYWGQGTHVTVSS
- polyreactivity (PSR sort gate): high polyreactivity

Sequence: QVQLVESGVGLVQAGGSLRLSCSASGSIFDYYAMGWYRQAHGKERELVAAISWRGGRTYYADSVKGRFTISRDNAKNTVYLQMNSLNPVDTAVYYCNTQEPYYESDYWGLGTQVTVSS
- polyreactivity (PSR sort gate): high polyreactivity

Sequence: QVQLVESGVGLVQAGGSLRLSCSASGSTFYTYAMGWYRQAPGKDRELVAAINLRGGRTYYADSVKGRFTISRDTAKNTVYLQMNSRKPEDTAVYYCAAQSIAYYKQIYYLGMDYWGQGTQVTVSS
- polyreactivity (PSR sort gate): high polyreactivity

Sequence: QVQLVESGVGLVQAGGSLRLSFASSGRIFPTNAMGSYSQAPRKEREFVPAITWRGGSTYYADSVKGRFTISRDNAKNTVYLQINSLKPEDTAVYYCAATGHIVFFRAYDYGYWGQGTQVTVSS
- polyreactivity (PSR sort gate): low polyreactivity

Sequence: QVQLVESGVGLVQAGGSLRLTCAASGRIFVRNAMGWYRQAPGKEMELVARITSSTGRTYYADSVKGRFTISRDNAKNTVYLQFTSLKPEDTAVYYCAVRYFYQFWAYDYWGKGTQVTVSS
- polyreactivity (PSR sort gate): high polyreactivity

Sequence: QVQLVESGVGLVQAGGSLRLTCAASGSIFTAYPMGSYRQAPGKERELVAAISRSGGRTYYADSVKGRFTISRDNAQITVNFQFNSLKPEDTAVYNCAAASRSTNYNYYYWGLGTQVTVSS
- polyreactivity (PSR sort gate): high polyreactivity

Sequence: QVQLVESGVGLVQAGGSLRVSCAASGSTIPIYAMGWYRQAPGKERELVAVISRSGGITYYADSVKGRFTISRDNAKNTVYLQMNSLKPEDTAVYYCNARTRGWTPDRGYWGQGTQVTVSS
- polyreactivity (PSR sort gate): high polyreactivity

Sequence: QVQLVESGVGLVQAGGSLSLSCAASGCTLRYYVMGWYRQAPGKERELVASISWSGDSTYYADSVKGRFTISRDNAKNTVYLQMNSLKPEDTAVYYCAARRWYVHYFAYGYWGQGTQVTVSS
- polyreactivity (PSR sort gate): low polyreactivity

Sequence: QVQLVESGVGLVQAGGSLSLSCAATGRIFNSYMGWYRQAPGKERELDAAISWSSGTSTYYADSVKGRFTISRDNAKNTVYLQMNSLKPEDTAVYYCNADDYYGPYPEEYDYWGQGTQVTVSS
- polyreactivity (PSR sort gate): low polyreactivity

Sequence: QVQLVESGVGLVQAGGSLSLSCASSGFIFSANDMGWYRPAPGKERELVADIDSSGRTNYADSVKGRVTISRDNAKNTVYLQMNSLKPEDTAVYYCATPPDDTGGGYRGYDYWGQGTQVTVSS
- polyreactivity (PSR sort gate): low polyreactivity

Sequence: QVQLVESGVGLVQAGGSRRLSCAASGRTFFDNVMGWYRQAPGKERELVAAIRSAGTTYYADSVKGRFTISRDNAKNTVYLQMNRLKPEDTAVYYCAATNRYYWSYFYQAKYGYWGQGTQVTVSS
- polyreactivity (PSR sort gate): low polyreactivity

Sequence: QVQLVESGVGLVQAGGTLRLSCAASGFIFRKYGMGWYRQAPGKERELVAAIRFTGGSTRYADSVKGRFTISRDNAKNTVYLQMNSLIPEDTAVYYCNADRVYVRGRFTYDYWGQGTQVTVSS
- polyreactivity (PSR sort gate): low polyreactivity

Sequence: QVQLVESGVGLVQAGGTLRLSCAASGSIFDPYAMGWYRQAPGKERELVAAITYSVGGTTYYADSVKGRFTISRDNAKNTVYLQMNSLKPEDTAVYYCAAEWWGNPFDYWGQGTQVTVST
- polyreactivity (PSR sort gate): high polyreactivity

Sequence: QVQLVESGVGLVQAVGSLRISCAASGRIFQPYAMGWYRQAPGNERELVARITRRGVSTYYADSVKGRFTISRENAKNTVYLQMNSLKPEDTAVYYCAAELFGGYYYWGLGTQVTVSS
- polyreactivity (PSR sort gate): high polyreactivity

Sequence: QVQLVESGVGVVQAGGSLRLSCAASGSTYVDNAMGWYRQAPGKERELVAGNSWSGASTYYADSVKGRFTISRDNAKNTFYLQMNSLKAEDTAVYYCATRVRAYYHQSWGYTERVYWGQGTQVTVSS
- polyreactivity (PSR sort gate): high polyreactivity

Sequence: QVQLVESGVVLVQAGGSLPLSCSASGRIFIHYAMGWYRQAPGKERELVAAISASGGTTNYADSVKGRFTISRDNAKNTVYLQMNSLKPEDTAVYYCAAEGYRSWRGLRSRYYYWGEGTQVTVSS
- polyreactivity (PSR sort gate): high polyreactivity

Sequence: QVQLVESPGGLVQAGGSLRLSCAASGSIFGSYAMGWYRQEPGKEREFVAVITSASTNYADSVKGRFTISRDNAKNTVNLQLNSLKPEDTAVYYCNKRGTRIRRTNKSHGVDYWGQGTQVTVSS
- polyreactivity (PSR sort gate): low polyreactivity

Sequence: QVQLVESRAGLVQAGGSLRLSCAASGNIFDIYAMGWYRQAPGKERELVAAISSGGSTYYADSVKGRFTISRDNAKNTVYLQLNSLKPEDTAVYYCAESRVGYYRYEYWGQGNQVTVSS
- polyreactivity (PSR sort gate): low polyreactivity

Sequence: QVQLVESRGALVQAGGSLRLSCAASGSIFSRYAMGWYRQAPGKERELVAAIRWTDSSTYYADSVKGRFTISRDHAKNTVYLQMNSLKPEDTAVYDCAKVYEGGSNKVDYWGQGTQVTVSS
- polyreactivity (PSR sort gate): low polyreactivity

Sequence: QVQLVESRGCLVQAGGSLRLSCAASGFIFAYYAMGWYRQAPRKERELVGAISSGGTTNYADSVMGRFTSSRDNAKNTVYLQMNSLKPEDTAVYYCAAAWGYYSTTIYKYSFNYDFWGQGTQVTVSS
- polyreactivity (PSR sort gate): high polyreactivity
